Source: the supplement of paper PMC9112550, “Optimization of the antimicrobial peptide Bac7 by deep mutational scanning” (BMC Biology, 2022)

System: Escherichia coli TOP10
Experiment: shrunken log2 fold change of peptide-encoding DNA abundance (4.5 h post-induction vs induction); higher = less antimicrobial activity (less host growth inhibition)
Conditions: time post-induction: 4.5 h; library: site-saturation at positions 5, 18, 19, 20
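Further: peptides expressed intracellularly from a pBAD plasmid library in pooled LB shake-flask culture, induced with 0.3% L-arabinose, DNA abundance read by NGS, three biological replicates, DESeq2 with apeglm shrinkage.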

Row | Sequence | shrunken log2 fold change
1 | RRIRQRPPRLPRPRPRPRTHPRP | 0.167
2 | RRIRARPPRLPRPRPRPCALPRP | 0.00197
3 | RRIRKRPPRLPRPRPRPTGPPRP | 0.588
4 | RRIRNRPPRLPRPRPRPLRHPRP | -0.0731
5 | RRIRKRPPRLPRPRPRPIWCPRP | -0.0231
6 | RRIRVRPPRLPRPRPRPGEAPRP | 0.474
7 | RRIRGRPPRLPRPRPRPQHWPRP | 0.165
8 | RRIRNRPPRLPRPRPRPCDPPRP | -0.114
9 | RRIRRRPPRLPRPRPRPYFVPRP | -0.381
10 | RRIRGRPPRLPRPRPRPPVFPRP | 0.647
11 | RRIRVRPPRLPRPRPRPHLSPRP | -0.301
12 | RRIRDRPPRLPRPRPRPTNRPRP | -0.149
13 | RRIRPRPPRLPRPRPRPYSYPRP | -0.228
14 | RRIRKRPPRLPRPRPRPIDHPRP | -0.0104
15 | RRIRKRPPRLPRPRPRPQQDPRP | 0.179
16 | RRIRKRPPRLPRPRPRPCCHPRP | -1.07
17 | RRIRSRPPRLPRPRPRPSKWPRP | -0.285
18 | RRIRFRPPRLPRPRPRPCWCPRP | -0.00345
19 | RRIRFRPPRLPRPRPRPSLDPRP | -0.296
20 | RRIRVRPPRLPRPRPRPHRDPRP | -0.198
21 | RRIRHRPPRLPRPRPRPSKLPRP | -0.448
22 | RRIRVRPPRLPRPRPRPTVDPRP | 0.177
23 | RRIRNRPPRLPRPRPRPWPTPRP | 0.216
24 | RRIRSRPPRLPRPRPRPFDGPRP | 0.0042
25 | RRIRTRPPRLPRPRPRPGLAPRP | 0.308

Row | Sequence | shrunken log2 fold change
26 | RRIRKRPPRLPRPRPRPNITPRP | -0.0249
27 | RRIRQRPPRLPRPRPRPEPVPRP | 0.0323
28 | RRIRGRPPRLPRPRPRPWKHPRP | -0.161
29 | RRIRTRPPRLPRPRPRPWVGPRP | -0.155
30 | RRIRTRPPRLPRPRPRPHWYPRP | -0.135
31 | RRIRKRPPRLPRPRPRPQGPPRP | 0.053
32 | RRIRDRPPRLPRPRPRPQNYPRP | -0.589
33 | RRIRTRPPRLPRPRPRPKRPPRP | -0.165
34 | RRIRPRPPRLPRPRPRPFYEPRP | -0.105
35 | RRIRMRPPRLPRPRPRPFYHPRP | -0.537
36 | RRIRERPPRLPRPRPRPPRIPRP | -0.453
37 | RRIRFRPPRLPRPRPRPQRVPRP | 0.045
38 | RRIRVRPPRLPRPRPRPIMLPRP | -0.122
39 | RRIRCRPPRLPRPRPRPRYCPRP | -0.654
40 | RRIRHRPPRLPRPRPRPFTFPRP | -0.0857
41 | RRIRFRPPRLPRPRPRPKTMPRP | -0.197
42 | RRIRDRPPRLPRPRPRPGYIPRP | -0.304
43 | RRIRQRPPRLPRPRPRPIQLPRP | -0.333
44 | RRIRERPPRLPRPRPRPVKTPRP | 0.0285
45 | RRIRDRPPRLPRPRPRPVKVPRP | -0.0343
46 | RRIRHRPPRLPRPRPRPETDPRP | -0.253
47 | RRIRFRPPRLPRPRPRPPDPPRP | 0.571
48 | RRIRLRPPRLPRPRPRPNYPPRP | -0.156
49 | RRIRCRPPRLPRPRPRPAAPPRP | 0.668
50 | RRIRSRPPRLPRPRPRPVPFPRP | -0.237

Row | Sequence | shrunken log2 fold change
51 | RRIRDRPPRLPRPRPRPAVRPRP | -0.0321
52 | RRIRQRPPRLPRPRPRPLSRPRP | -0.0591
53 | RRIRNRPPRLPRPRPRPNLVPRP | -0.0403
54 | RRIRGRPPRLPRPRPRPSAIPRP | 1.3
55 | RRIRYRPPRLPRPRPRPVSEPRP | -0.00125
56 | RRIRTRPPRLPRPRPRPHPNPRP | 0.0697
57 | RRIRERPPRLPRPRPRPCTDPRP | -0.169
58 | RRIRWRPPRLPRPRPRPTCLPRP | 0.324
59 | RRIRGRPPRLPRPRPRPQCWPRP | 0.623
60 | RRIRERPPRLPRPRPRPDGAPRP | 0.129
61 | RRIRSRPPRLPRPRPRPGNWPRP | -0.0906
62 | RRIRWRPPRLPRPRPRPCLWPRP | 0.0333
63 | RRIRVRPPRLPRPRPRPSPIPRP | -0.324
64 | RRIRTRPPRLPRPRPRPCSMPRP | -0.179
65 | RRIRVRPPRLPRPRPRPQYMPRP | -0.554
66 | RRIRTRPPRLPRPRPRPDMKPRP | -0.0377
67 | RRIRVRPPRLPRPRPRPNHSPRP | -0.632
68 | RRIRQRPPRLPRPRPRPEHCPRP | -0.199
69 | RRIRARPPRLPRPRPRPQVHPRP | 0.102
70 | RRIRRRPPRLPRPRPRPDWYPRP | 0.0693
71 | RRIRDRPPRLPRPRPRPESNPRP | 0.892
72 | RRIRTRPPRLPRPRPRPTVHPRP | -0.199
73 | RRIRLRPPRLPRPRPRPWVKPRP | -0.0122
74 | RRIRMRPPRLPRPRPRPDGNPRP | 0.0626
75 | RRIRIRPPRLPRPRPRPTSKPRP | -0.207

Row | Sequence | shrunken log2 fold change
76 | RRIRPRPPRLPRPRPRPSYAPRP | -0.106
77 | RRIRARPPRLPRPRPRPNYWPRP | 0.0678
78 | RRIRERPPRLPRPRPRPCVWPRP | 0.0291
79 | RRIRNRPPRLPRPRPRPNIFPRP | -0.29
80 | RRIRSRPPRLPRPRPRPADLPRP | 0.274
81 | RRIRLRPPRLPRPRPRPVGCPRP | 0.226
82 | RRIRGRPPRLPRPRPRPNLEPRP | 0.678
83 | RRIRIRPPRLPRPRPRPSFFPRP | -0.654
84 | RRIRLRPPRLPRPRPRPKTYPRP | -0.511
85 | RRIRGRPPRLPRPRPRPDTCPRP | 0.131
86 | RRIRCRPPRLPRPRPRPTIDPRP | 0.0362
87 | RRIRIRPPRLPRPRPRPCDPPRP | 0.00225
88 | RRIRLRPPRLPRPRPRPMAYPRP | -0.0987
89 | RRIRRRPPRLPRPRPRPFDFPRP | -0.146
90 | RRIRYRPPRLPRPRPRPTYMPRP | -1
91 | RRIRTRPPRLPRPRPRPAVQPRP | 0.0481
92 | RRIRMRPPRLPRPRPRPSVCPRP | 0.386
93 | RRIRWRPPRLPRPRPRPKQTPRP | 0.578
94 | RRIRTRPPRLPRPRPRPTHFPRP | 0.301
95 | RRIRERPPRLPRPRPRPTAQPRP | 0.416
96 | RRIRKRPPRLPRPRPRPNTLPRP | -0.0816
97 | RRIRIRPPRLPRPRPRPPKYPRP | -0.886
98 | RRIRKRPPRLPRPRPRPVHGPRP | 0.0412
99 | RRIRPRPPRLPRPRPRPYMYPRP | -0.634
100 | RRIRLRPPRLPRPRPRPHGSPRP | -0.0692

Row | Sequence | shrunken log2 fold change
101 | RRIRSRPPRLPRPRPRPCEHPRP | 0.135
102 | RRIRKRPPRLPRPRPRPPHTPRP | 0.534
103 | RRIRPRPPRLPRPRPRPMWTPRP | 0.0739
104 | RRIRTRPPRLPRPRPRPHIGPRP | -0.156
105 | RRIRDRPPRLPRPRPRPDGPPRP | 0.0462
106 | RRIRRRPPRLPRPRPRPSHLPRP | -0.21
107 | RRIRQRPPRLPRPRPRPMDWPRP | 0.0912
108 | RRIRYRPPRLPRPRPRPWVEPRP | 0.0344
109 | RRIRNRPPRLPRPRPRPTFCPRP | -0.379
110 | RRIRLRPPRLPRPRPRPCWYPRP | -0.176
111 | RRIRPRPPRLPRPRPRPCRCPRP | 0.00981
112 | RRIRGRPPRLPRPRPRPPAGPRP | 1.37
113 | RRIRCRPPRLPRPRPRPFLIPRP | -0.36
114 | RRIRPRPPRLPRPRPRPCKHPRP | -0.131
115 | RRIRFRPPRLPRPRPRPEADPRP | 0.24
116 | RRIRTRPPRLPRPRPRPDVSPRP | -0.223
117 | RRIRPRPPRLPRPRPRPQVDPRP | -0.0328
118 | RRIRVRPPRLPRPRPRPNHRPRP | -0.199
119 | RRIRKRPPRLPRPRPRPKELPRP | 0.566
120 | RRIRTRPPRLPRPRPRPGSYPRP | -0.0475
121 | RRIRDRPPRLPRPRPRPSEFPRP | -0.0277
122 | RRIRLRPPRLPRPRPRPCNYPRP | -0.593
123 | RRIRMRPPRLPRPRPRPCDNPRP | 0.0146
124 | RRIRERPPRLPRPRPRPYMMPRP | -0.259
125 | RRIRIRPPRLPRPRPRPCEEPRP | 0.0173
